Measured values from patent publication US11111484B2, “Streptococcus bacteriophage lysins for detection and treatment of gram positive bacteria” (priority 2011, dated 2021).
Several values for one entry are separate records, joined by “and”; a condition that tells them apart may be missing. Equal entries are not always repeated. Entries after “also recorded” stand apart in the source; their conditions may differ.

Columns and labels:
S. agalactiae 090R = experiment: ΔPlySs1 OD600 lysis, 1 hr, optimal buffering conditions; type: cell-based, Streptococcus agalactiae
S. aureus RN4220 = experiment: as above; type: cell-based, Staphylococcus aureus
S. oralis 35037 = experiment: as above; type: cell-based, Streptococcus oralis
M. luteus 4698 = experiment: as above; type: cell-based
S. uberis 27598 = experiment: as above; type: cell-based
S. agalactiae type II = experiment: as above; type: cell-based, Streptococcus agalactiae
S. pyogenes D471 = experiment: as above; type: cell-based, Streptococcus pyogenes
S. agalactiae = experiment: CFU studies, bactericidal effect; type: cell-based, Streptococcus agalactiae; details: 128 μg/ml PlySs2, 60 mins
Method: (§1) Log-phase bacteria were resuspended in buffer A to an OD600 of 0.1 (=0.5 McFarland≈10^8 CFU/ml). PlySs2 was added at 128 μg/ml to polypropylene microtiter plates (Costar) in triplicate for each test organism. Plates were sealed and incubated at 37° C. with shaking every 5 minutes for 1 hour. After 1 hour of incubation, cells were serially diluted in 10-fold increments and plated on BHI. Triplicate controls for each strain were performed with buffer B replacing PlySs2.

S. aureus strains = experiment: PlySs2 lytic activity against species and strains (FIG. 25); type: cell-based, Staphylococcus aureus; details: all tested S. aureus strains; 32 μg/ml, 60 minutes
Method: (§2) FIG. 25 provides PlySs2 activity against different species and strains. Log-phase cultures were exposed to 32 μg/ml PlySs2 for 60 minutes in phosphate buffer. The final OD600 of the treated samples were divided by the final OD600 of the untreated samples to generate the normalized values above. Multiple Staphylococci (including, but not limited to: MRSA, MSSA, and VISA), Streptococci, Listeria, Enterococci, and Bacilli were tested for susceptibility to PlySs2 activity. Escherichia and Pseudomonas were tested as Gram-negative controls.

MRSA = MRSA wound infection model in rats; details: dorsal wound; 500 μL + 100 μL PlySs2 at 10 mg/mL; after 10 days
E. coli = experiment: CFU studies, bactericidal effect; type: cell-based, Escherichia coli; details: E. coli negative control; 128 μg/ml PlySs2; 60 mins
Method: as §1

MSSA strain 8325 = experiment: resistance assay, exposure to incrementally increasing concentrations; type: cell-based, Staphylococcus aureus; details: MSSA 8325; concentration doubled daily from 1/32 to 4× MIC over 8 days
[1] = tested on: MRSA strain MW2 and S. pyogenes strain MGAS5005; experiment: murine septicemia model, mixed MRSA and S. pyogenes infection; type: in vivo, FVB/NJ mice; details: PlySs2 2 mg, ClyS 1 mg + PlyC 1 mg
Method: The Rockefeller University's Institutional Animal Care and Use Committee approved all in vivo protocols. A systemic infection model described in Daniel, A. et al., was used to test for the in vivo efficacy of PlySs2 against multiple gram-positive bacteria. Briefly, 4-5 week old female FVB/NJ mice (weight range 15 to 20 g) were obtained from The Jackson Laboratory (Bar Harbor, Me.). After a period of acclimation, mice were injected intraperitoneally (IP) with 0.5 ml of mid log-phase (OD600 0.5) bacteria diluted with 5% hog gastric mucin (Sigma) in saline. Bacterial suspensions contained ˜5×10^5 CFU/ml of MW2, a PVL toxin-encoding MRSA strain, ˜1×10^7 of MGAS5005, an M1 serotype of Streptococcus pyogenes that is virulent in humans and mice (Musser), or a combination of both bacteria simultaneously at the above concentrations for the mix infection experiments. Actual bacterial inoculation titers were calculated by serial dilution and plating to Columbia blood agar plates for each experiment. […] The survival rate for each experimental group was monitored every 12 hours for the first 24 hours then every 24 hours up to 10 days post-infection. The data were statistically analyzed by Kaplan Meier Survival curves and a Logrank test performed for 95% confidence intervals using the Prism computer program (GraphPad Software; La Jolla, Calif.). […]

S. pyogenes strains = experiment: PlySs2 lytic activity against species and strains (FIG. 25); type: cell-based, Streptococcus pyogenes; details: S. pyogenes serotypes M1, M3, M4, M6, M18, M49, variant without M protein
Method: as §2

B1: ΔPlySs1: truncated PlySs1 lysin, SEQ ID NO:2, N-terminal 254 amino acids: only N-terminal enzymatic and central binding domains (protein, listed as Streptococcus suis)
chain: MTINLETSIRWMSDRVGKVSYSMDYRNGPNSYDCSSAVYYALMAGGAISAGWAVNTEYMHDWLIRNGYVLVAENKPFNAQRHDVCILGKRGYSSGAGGHVVIFVDNVNVIHCNYARNGISIDNYNQVHRGMYYYLYRPANQPSISNKSLDQLVKETLAGVHGNGDTRKASLGSQYEAVMAVINGKASASEKSDEELAREVLAGKHGAGEDRKRSLGPRYEPVQAKVNELLKAKEKPSETAKNEPQTVQFKEDGDL
**Q.** How did the “lysis value after 1 hr (treated/untreated OD600 ratio)” value (S. agalactiae 090R; 6.5 μg/ml) turn out when B1 was run?
**A.** 0.97

**Q.** And the “lysis value after 1 hr (treated/untreated OD600 ratio)” value (S. agalactiae 090R; 13 μg/ml)?
**A.** 0.99

**Q.** What about the “lysis value after 1 hr (treated/untreated OD600 ratio)” value (S. agalactiae 090R; 30 μg/ml) of the same molecule?
**A.** 0.97

**Q.** What about the “lysis value after 1 hr (treated/untreated OD600 ratio)” value (S. agalactiae 090R; 65 μg/ml) of the same molecule?
**A.** 0.98

**Q.** And the “lysis value after 1 hr (treated/untreated OD600 ratio)” value (S. agalactiae 090R; 130 μg/ml)?
**A.** 0.93

**Q.** And the “lysis value after 1 hr (treated/untreated OD600 ratio)” value (S. aureus RN4220; 6.5 μg/ml)?
**A.** 0.89

**Q.** What about the “lysis value after 1 hr (treated/untreated OD600 ratio)” value (S. aureus RN4220; 13 μg/ml) of the same molecule?
**A.** 0.78

**Q.** What about the “lysis value after 1 hr (treated/untreated OD600 ratio)” value (S. aureus RN4220; 30 μg/ml) of the same molecule?
**A.** 0.55

**Q.** What about the “lysis value after 1 hr (treated/untreated OD600 ratio)” value (S. aureus RN4220; 65 μg/ml) of the same molecule?
**A.** 0.31

**Q.** And the “lysis value after 1 hr (treated/untreated OD600 ratio)” value (S. aureus RN4220; 130 μg/ml)?
**A.** 0.10

**Q.** What about the “lysis value after 1 hr (treated/untreated OD600 ratio)” value (S. oralis 35037; 6.5 μg/ml) of the same molecule?
**A.** 0.30

**Q.** And the “lysis value after 1 hr (treated/untreated OD600 ratio)” value (S. oralis 35037; 13 μg/ml)?
**A.** 0.13

**Q.** And the “lysis value after 1 hr (treated/untreated OD600 ratio)” value (S. oralis 35037; 30 μg/ml)?
**A.** 0.08

**Q.** What about the “lysis value after 1 hr (treated/untreated OD600 ratio)” value (S. oralis 35037; 65 μg/ml) of the same molecule?
**A.** 0.07

**Q.** What about the “lysis value after 1 hr (treated/untreated OD600 ratio)” value (S. oralis 35037; 130 μg/ml) of the same molecule?
**A.** 0.04

**Q.** And the “lysis value after 1 hr (treated/untreated OD600 ratio)” value (M. luteus 4698; 6.5 μg/ml)?
**A.** 0.84

**Q.** What about the “lysis value after 1 hr (treated/untreated OD600 ratio)” value (M. luteus 4698; 13 μg/ml) of the same molecule?
**A.** 0.90

**Q.** And the “lysis value after 1 hr (treated/untreated OD600 ratio)” value (M. luteus 4698; 30 μg/ml)?
**A.** 0.83

**Q.** And the “lysis value after 1 hr (treated/untreated OD600 ratio)” value (M. luteus 4698; 65 μg/ml)?
**A.** 0.87

**Q.** What about the “lysis value after 1 hr (treated/untreated OD600 ratio)” value (M. luteus 4698; 130 μg/ml) of the same molecule?
**A.** 0.82

**Q.** What about the “lysis value after 1 hr (treated/untreated OD600 ratio)” value (S. uberis 27598; 6.5 μg/ml) of the same molecule?
**A.** 0.42

**Q.** What about the “lysis value after 1 hr (treated/untreated OD600 ratio)” value (S. uberis 27598; 13 μg/ml) of the same molecule?
**A.** 0.23

**Q.** And the “lysis value after 1 hr (treated/untreated OD600 ratio)” value (S. uberis 27598; 30 μg/ml)?
**A.** 0.16

**Q.** What about the “lysis value after 1 hr (treated/untreated OD600 ratio)” value (S. uberis 27598; 65 μg/ml) of the same molecule?
**A.** 0.14

**Q.** What about the “lysis value after 1 hr (treated/untreated OD600 ratio)” value (S. uberis 27598; 130 μg/ml) of the same molecule?
**A.** 0.12

**Q.** And the “lysis value after 1 hr (treated/untreated OD600 ratio)” value (S. agalactiae type II; 6.5 μg/ml)?
**A.** 0.61

**Q.** And the “lysis value after 1 hr (treated/untreated OD600 ratio)” value (S. agalactiae type II; 13 μg/ml)?
**A.** 0.21

**Q.** And the “lysis value after 1 hr (treated/untreated OD600 ratio)” value (S. agalactiae type II; 30 μg/ml)?
**A.** 0.11

**Q.** And the “lysis value after 1 hr (treated/untreated OD600 ratio)” value (S. agalactiae type II; 65 μg/ml)?
**A.** 0.08

**Q.** What about the “lysis value after 1 hr (treated/untreated OD600 ratio)” value (S. agalactiae type II; 130 μg/ml) of the same molecule?
**A.** 0.04

**Q.** What about the “lysis value after 1 hr (treated/untreated OD600 ratio)” value (S. pyogenes D471; 6.5 μg/ml) of the same molecule?
**A.** 0.39

**Q.** And the “lysis value after 1 hr (treated/untreated OD600 ratio)” value (S. pyogenes D471; 13 μg/ml)?
**A.** 0.27

**Q.** And the “lysis value after 1 hr (treated/untreated OD600 ratio)” value (S. pyogenes D471; 30 μg/ml)?
**A.** 0.17

**Q.** And the “lysis value after 1 hr (treated/untreated OD600 ratio)” value (S. pyogenes D471; 65 μg/ml)?
**A.** 0.13

**Q.** What about the “lysis value after 1 hr (treated/untreated OD600 ratio)” value (S. pyogenes D471; 130 μg/ml) of the same molecule?
**A.** 0.09

B2: PlySs2: Streptococcus suis prophage lysin, SEQ ID NO:3; N-terminal CHAP domain and C-terminal SH3-type 5 domain (protein, listed as Streptococcus suis)
chain: MTTVNEALNNVRAQVGSGVSVGNGECYALASWYERMISPDATVGLGAGVGWVSGAIGDTISAKNIGSSYNWQANGWTVSTSGPFKAGQIVTLGATPGNPYGHVVIVEAVDGDRLTILEQNYGGKRYPVRNYYSAASYRQQVVHYITPPGTVAQSAPNLAGSRSYRETGTMTVTVDALNVRRAPNTSGEIVAVYKRGESFDYDTVIIDVNGYVWVSYIGGSGKRNYVATGATKDGKRFGNAWGTFK
**Q.** Which results are given for B2?
**A.** reduction in CFU counts (S. agalactiae): dramatically reduced; susceptibility to PlySs2 lysis (S. aureus strains): highly susceptible; drop of CFU's of MRSA compared with control rats (MRSA): 3-4 logs; reduction in CFU counts (E. coli): no reduction in number; development of resistance (MSSA strain 8325): Neither S. aureus strain developed resistance; also recorded: None of MRSA strain MW2, MSSA strain 8325, nor S. pyogenes strain 5005 developed resistance; survival of mixed infection [1]: 92%; survival of mixed infection (mice surviving/total) [1]: 22 of 24 and 22/24; lytic activity (S. pyogenes strains): had activity against all strains of S. pyogenes
